The experiment deals with linear tetra-Ub (UniProt P0CG47 1-76; P0CG47 1-76; P0CG47 1-76; P0CG47 1-76).

Results on one molecule are retold here after article PMC3714537 (Molecular cell, 2012).

B1: GFP-UBAN (EGFP fused to the CoZi domain of murine NEMO, amino acids 183-339) (domain or fragment, UniProt O88522 183-339, looked up)
chain: QLESEREVLQQQHSVQVDQLRMQNQSVEAALRMERQAASEEKRKLAQLQAAYHQLFQDYDSHIKSSKGMQLEDLRQQLQQAEEALVAKQELIDKLKEEAEQHKIVMETVPVLKAQADIYKADFQAERHAREKLVEKKEYLQEQLEQLQREFNKLKVG
For orientation: Kd means the free concentration of one partner at which half of the binding sites on the other are occupied at equilibrium, for simple one-to-one binding. Read a low Kd as a tighter complex. As for B1, the affinity, expressed as Kd, was 4.7 µM.
